Data published in the supplement of paper PMC10567573.
± gives the standard deviation.

Experiment: protein stability index of a GFP-peptide fusion (GPS, HEK-293T) (PSI 1-6); higher = more stable
[1] = treatment: DMSO, c terminus: a fixed tail appended
[2] = treatment: MLN4924 1 uM, 8 h, c terminus: a fixed tail appended
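Also: 24-mer peptide tiles fused after GFP, lentivirally expressed, FACS-sorted into six equal bins by GFP/DsRed ratio, decoded by Illumina sequencing, PSI is the read-weighted mean bin number.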

Sequence	protein stability index [1]	protein stability index [2]	protein stability index (treatment: DMSO, c terminus: native)	protein stability index (treatment: MLN4924 1 uM, 8 h, c terminus: native)
DLGASSLHVNGESLEMDSDEDDSE [EHMT1]	5.52 ± 0.15	5.62 ± 0.14		
QSCARAVVPSYIPLVKKHCDDSFT [CPOX]	2.73 ± 0.2	2.71 ± 0.27		
ENRRKVLYQRAPRNIHRHVILSEI [TCF25]	2.62 ± 0.073	2.75 ± 0.31		
FANLIKEFVIIDCRYPYEYEGGHI [CDC25A]	2.98 ± 0.51	2.76 ± 1.1		
PPATLGEGSADTEDRKLPAPGADV [EHMT1]	5.47 ± 0.3	5.58 ± 0.13		
REQEKKPKKEANQAPKSKSGSRPR [LRRC59]	5.41 ± 0.16	5.3 ± 0.23		
AVPHPPPSTPIKLEEGDGCAREYL [ADD1]	4.16 ± 0.35	4.42 ± 0.23		
KGNRTARIIDKPRVIEVLPRGATA [SEPHS2]	3.64 ± 0.22	3.77 ± 0.2		
CDELELHQRFLREGRFWKSKNEDR [ZMYND11]	4.29 ± 0.17	4.31 ± 0.36		
TSRRARASKKTAQPWVEVVLALRN [MFSD9]	2.33 ± 0.12	2.58 ± 0.19		
KFAMYPPSMIATGSVGAAICGLQQ [CCND2]	2.4 ± 0.52	2.2 ± 0.4		
RNVRERIAKNLVEKGILTTEKQNF [GOLPH3L]	3.73 ± 0.22	3.82 ± 0.2		
CTRFTDEYQLYEDIGKGAFSVVRR [CAMK2B]	2.84 ± 0.35	2.85 ± 0.54		
LAKTGEGSYGVVFKCRNKTSGQVV [CDKL4]	2.72 ± 0.31	2.75 ± 0.2		
KILDELEKVLDQVETELQRRNEET [GDAP1]	3.08 ± 0.1	3.53 ± 0.081		
LPSERWNPTQNVRTILLSVISLLN [CDC34]	3.53 ± 0.2	3.58 ± 0.33		
SVPIVYEKYKTQIDHYVGIARDQT [RTN3]	2.89 ± 0.36	3.06 ± 0.09		
AKRLLDADDAAAVAAKCPRLSECS [TRIB1]	4 ± 0.51	4.11 ± 0.42		
TASLIEDIDKKHLVLLRDGRTLIG [LSM1]	2.83 ± 0.15	2.62 ± 0.32		
GGIVTDTPASNHLPGWEDIESKIP [SLC19A2]	4.77 ± 0.17	4.87 ± 0.12		
DLIKHQRIHTEEKPYKCQQCDKRF [ZNF75A]	2.99 ± 0.23	3.31 ± 0.16		
LFAPLKLQMEFKAVQQVQRLPFLS [POMP]	2.51 ± 0.82	2.46 ± 0.75		

Sequence	protein stability index [1]	protein stability index [2]	protein stability index (treatment: DMSO, c terminus: native)	protein stability index (treatment: MLN4924 1 uM, 8 h, c terminus: native)
HTRSPYSTFYPPYHSPELTTPPGH [NEUROD6]	3.23 ± 0.14	3.18 ± 0.15		
KYDPTIEDSYRKQVEVDAQQCMLE [RAP1B]	4.55 ± 0.12	4.66 ± 0.11		
VQGPGVVGEFPIISPGRVYEYTSC [FBXO3]	2.72 ± 0.52	3 ± 0.32		
LGAVAVFAVGYIKISWSTWGEMTL [SLC19A2]	2.97 ± 0.68	2.97 ± 0.73		
AAAHASVDIKDVLDFYKQWKEIG [SMG5]			3.45 ± 0.3	3.54 ± 0.55
SDKDKAVGIFNTVINPMLNPIIYS [OR3A1]	2.54 ± 0.3	2.71 ± 0.25		
LLDIKTRLEQEIATYRSLLEGQDA [KRT13]	3.45 ± 0.19	3.51 ± 0.26		
SAVEGAPPARPRPRSPECRMIPGQ [IRX6]	4.86 ± 0.24	4.96 ± 0.32		
PSLEAGNPAPAAPCPLGEPKTQAC [MYCL]	5.26 ± 0.14	5.32 ± 0.11		
DREGPSSSKLVTKKAPQPAKPRLA [HDAC6]	5.09 ± 0.3	5.06 ± 0.35		
LMFLDICSELNKLCQHFEAVHSGT [SPACA9]	2.67 ± 0.72	2.4 ± 0.29		
RKMLEQGYSPNGRDANGWTLLHFS [ASB7]	2.34 ± 0.14	2.49 ± 0.21		
GMKIDLIDGKGRGVIATKQFSRGD [KMT5A]	3.49 ± 0.15	4 ± 0.63		
QSHISDMSVILSMDNNRNLDLDSI [KRT71]	3.87 ± 0.4	3.72 ± 0.35		
GVRDSGSPPLHANTSLHVFVLDEN [PCDHGC5]	3.51 ± 0.21	3.51 ± 0.24		
HKHVHFSSSFTSIASEWFLIANRS [SLC22A15]	2.43 ± 0.57	2.04 ± 0.33		
LTEHKRIHTGKKPHVCSLCGKAFY [ZNF649]	2.83 ± 0.38	3.32 ± 0.56		
FPAKYIYDPWNAPEGIQKVAKCLI [CRY1]	2.85 ± 0.39	2.43 ± 0.32		
LRNTLKSTSEDSLVKQECIKEVVE [FAN1]	4.63 ± 0.3	5.01 ± 0.23		
VLERAACLRRCKRTLPAFQVPYPP [P3H4]	2.16 ± 0.29	2.16 ± 0.19		
RQVALGAMEAVRVNPLHVDSTWLL [SLC25A39]	2.53 ± 0.27	2.52 ± 0.069		
KLKKGICEALEDSDGRQDSPAGEL [MATN2]	5.3 ± 0.28	5.31 ± 0.15		
